Measured values from patent US6448377.

Target: β2 adrenoceptor, tagged at the amino-terminus with the FLAG epitope (UniProt P07550)
Assay: cell-based or functional assay

GTPγS-sensitive high-affinity agonist binding sites: 30%
basal GTPase activity, tetGsα membranes compared to Gsα membranes: 1.6 fold
isoproterenol-stimulated GTPase activity, tetGsα membranes compared to Gsα membranes: 2.8 fold
Substance: membrane-tethered Gsα (tetGsα) (from UniProt P07550 1-64; P07550 343-412)
